Consider 1 molecule from patent US20220227815A1, “COMPOSITIONS AND METHODS USEFUL IN TREATING BRAIN DISEASES” (University of Kansas, priority 2019, published 2022).

Assay [1] has as its system myelin in the lateral corpus callosum. Briefly: Remyelination in EAE mouse brain, Luxol fast blue staining. The assay is classed as in vivo, SJL/elite mice. The note with it: EAE mice; BDNF 5.71 nmol/kg ± ADTC5 10 μmol/kg; n=5; compared to BDNF alone or vehicle. An excerpt: Euthanasia, Brain Perfusion, and Extraction: All mice were euthanized via a CO2 chamber. Immediately following euthanasia, mice underwent cervical dislocation and were transcardially perfused with PBS+0.2% Tween-20 followed by perfusion-fixation with a 4% paraformaldehyde and 30% sucrose PBS solution. Following the fixation, the brains were extracted and post-fixed overnight in the perfusion-fixation solution.
Fixed brain samples were submitted to IHC World (Ellicott City, Md.) for paraffin embedding, tissue sectioning (5 μm), anti-NG2 (Abcam, Cambridge, UK) staining via DAB, and Luxol-fast blue staining. Staining protocols described on the IHC World website for Luxol-fast blue and immunohistochemistry enzyme HRP were performed. […]
Luxol-fast blue and anti-NG2 mAb images were taken under identical conditions on a Zeiss Axioplan 2 microscope (Oberkochen, Germany) equipped with a mercury lamp excitation source, and 40× (Luxol) and 20× (anti-NG2) air objective lenses. Greyscale images for quantification were taken using a 1344×1024 Orca ER CCD camera (Hamamatsu Photonics, Japan), color images for qualitative purposes were taken using a 1.3 MP Spot Color camera (Spot Imaging, Sterling Heights, Mich.). […] The mean value of each ROI from each image was recorded. […] The integrated mean grey value for each ROI from each image was recorded. […]

The next assay concerns SJL/elite EAE mice. Briefly: Suppression of EAE relapse, clinical scores. The assay is classed as in vivo. Particulars: BDNF 5.71 nmol/kg and/or ADTC5 10 μmol/kg i.v. The procedure:
EAE Mouse Model: EAE disease in animals (5-8-week-old SJL/elite female mice, Charles River) was stimulated by injecting 200 μg of PLP139-151 peptide in a 0.2 mL emulsion containing equal volumes of PBS and complete Freund's adjuvant (CFA) with killed mycobacterium tuberculosis strain H37RA (Difco, Detroit, Mich.; final concentration 4 mg/mL) as described in Kobayashi, N.; Kiptoo, P.; Kobayashi, H.; Ridwan, R.; Brocke, S.; Siahaan, T. J. Prophylactic and therapeutic suppression of experimental autoimmune encephalomyelitis by a novel bifunctional peptide inhibitor. Clin Immunol 2008, 129, (1), 69-79 and Kobayashi, N.; Kobayashi, H.; Gu, L.; Malefyt, T.; Siahaan, T. J. Antigen-specific suppression of experimental autoimmune encephalomyelitis by a novel bifunctional peptide inhibitor. J Pharmacol Exp Ther 2007, 322, (2), 879-86. Briefly, […] of PLP/CFA emulsion was administered to four different regions above the shoulders and the flanks on Day 0 followed by intraperitoneal injection of 200 ng of pertussis toxin (List Biological Laboratories, Campbell, Calif.) on Days 0 and 2. Clinical scores that reflect the disease progression were determined using an 11-point scale with 0.5 increments ranging from 0 to 5; 0 being no apparent disease and 5 being moribund. On Day 21, mice were randomly separated into […]: (i) BDNF (5.7 nmol/kg)+ADTC5 (10 μmol/kg; n=7), (ii) BDNF alone (5.71 nmol/kg, n=6), (iii) ADTC5 alone (10 μmol/kg; n=5), and (iv) vehicle (n=5). All mice received 8 intravenous injections every 4 days beginning on Day 21. The mice were euthanized via CO2 inhalation on Day 55. Area under the curve (AUC) calculations were used to compare clinical scores across groups; AUC calculations were performed using the trapezoid rule from Days 21 to 55.

B1: BDNF: recombinant brain-derived neurotrophic factor (13 kDa monomer), Peprotech (protein, UniProt P23560 19-247, looked up)
Neurotrophic factor BDNF …: APMKEANIRGQGGLAYPGVRTHGTLESVNGPKAGSRGLTSLADTFEHVIEELLDEDQKVRPNEENNKDADLYTSRVMLSSQVPLEPPLLFLLEEYKNYLDAANMSMRVRRHSDPARRGELSVCDSISEWVTAADKKTAVDMSGGTVTVLEKVPVSKGQLKQYFYETKCNPMGYTKEGCRGIDKRHWNSQCRTTQSYVRALTMDSKKRIGWRFIRIDTSCVCTLTIKRGR
Turning to B1, the “myelin density in the lateral corpus callosum” value in assay [1] is reported as “myelin discontinuity”. Also, the “locomotion / paralysis observed” value in the assay on SJL/elite EAE mice (8 injections) was “partial or full hind leg paralysis and full tail paralysis”. Besides, the “EAE clinical body scores” value in the assay with SJL/elite EAE mice (8 injections every 4 days from day 21, compared with other groups/vehicle) is reported as “no significant difference”.
